These results are taken from patent publication CN105542007A (UNIV NANCHANG, dated 2016).

Experiment [1] addresses T1, 重组表达的PSMA胞外区蛋白 (recombinant extracellular domain of prostate-specific membrane antigen, expressed in HEK-293) (UniProt Q04609 44-750, limits assumed).
T1 construct: extracellular domain; Cloned into pRAG2a via NotI/BamHI, secreted from HEK-293 cells and purified with HisTrap; also called 前列腺特异性膜抗原膜外区; PSMA蛋白; not shown: His tag (purified with HisTrap, detected with anti-His antibody)
Description: indirect phage-ELISA, PSMA extracellular domain coated at 5 μg/mL, HRP-anti-M13 detection. For orientation: In an ELISA, binding on a coated surface is turned into a signal by an enzyme label.

Experiment [2] addresses T2, 前列腺特异性膜抗原 (PSMA) on LNCaP prostate cancer cells (UniProt Q04609 1-750, limits assumed).
T2 construct: whole, on cells; Endogenous PSMA on fixed LNCaP cells; also called LNCaP细胞(表达PSMA)
Description: cell ELISA on fixed LNCaP (PSMA+) against MKN45 (PSMA-) cells, HRP-anti-M13 detection, OD450.

T2 sequence (Q04609 whole entry): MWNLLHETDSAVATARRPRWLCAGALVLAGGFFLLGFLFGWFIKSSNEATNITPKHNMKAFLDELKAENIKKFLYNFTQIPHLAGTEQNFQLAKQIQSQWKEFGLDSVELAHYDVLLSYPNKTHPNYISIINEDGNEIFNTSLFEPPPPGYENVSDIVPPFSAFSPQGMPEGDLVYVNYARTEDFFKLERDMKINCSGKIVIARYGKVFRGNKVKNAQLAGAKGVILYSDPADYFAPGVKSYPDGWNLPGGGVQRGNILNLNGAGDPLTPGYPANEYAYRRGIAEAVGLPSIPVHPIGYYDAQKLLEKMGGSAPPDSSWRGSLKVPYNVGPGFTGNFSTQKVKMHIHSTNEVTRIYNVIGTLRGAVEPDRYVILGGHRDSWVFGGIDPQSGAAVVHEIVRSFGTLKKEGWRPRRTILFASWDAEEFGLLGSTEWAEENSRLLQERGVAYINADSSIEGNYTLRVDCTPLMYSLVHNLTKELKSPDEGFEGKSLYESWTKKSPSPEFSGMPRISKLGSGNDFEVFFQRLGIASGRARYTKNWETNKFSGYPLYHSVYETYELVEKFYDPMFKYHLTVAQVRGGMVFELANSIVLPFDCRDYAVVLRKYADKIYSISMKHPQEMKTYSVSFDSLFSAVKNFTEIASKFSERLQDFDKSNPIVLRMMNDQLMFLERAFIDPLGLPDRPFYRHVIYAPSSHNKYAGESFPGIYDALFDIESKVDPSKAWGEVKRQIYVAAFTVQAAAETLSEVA
T1 sequence (Q04609 44-750 limits assumed): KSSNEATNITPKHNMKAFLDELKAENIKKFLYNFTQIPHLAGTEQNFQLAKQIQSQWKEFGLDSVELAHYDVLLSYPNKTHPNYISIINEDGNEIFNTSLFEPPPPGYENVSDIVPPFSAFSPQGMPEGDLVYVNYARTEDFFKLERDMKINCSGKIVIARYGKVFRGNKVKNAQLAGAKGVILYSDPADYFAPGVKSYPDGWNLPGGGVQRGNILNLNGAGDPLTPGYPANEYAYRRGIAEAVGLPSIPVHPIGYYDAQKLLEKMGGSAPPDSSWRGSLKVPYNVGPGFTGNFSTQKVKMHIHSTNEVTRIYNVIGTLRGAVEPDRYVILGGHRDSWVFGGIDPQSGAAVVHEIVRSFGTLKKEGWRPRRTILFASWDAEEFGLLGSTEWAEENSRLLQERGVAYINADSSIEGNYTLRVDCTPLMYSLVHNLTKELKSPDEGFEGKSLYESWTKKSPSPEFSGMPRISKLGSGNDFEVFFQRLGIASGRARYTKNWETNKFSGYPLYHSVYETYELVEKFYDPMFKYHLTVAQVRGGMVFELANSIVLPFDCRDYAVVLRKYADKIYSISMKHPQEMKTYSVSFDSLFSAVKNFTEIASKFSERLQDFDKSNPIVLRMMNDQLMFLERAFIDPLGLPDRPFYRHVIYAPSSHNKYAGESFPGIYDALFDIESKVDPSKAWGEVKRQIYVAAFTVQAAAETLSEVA

B1: 抗前列腺特异性膜抗原单域重链抗体噬菌体阳性克隆 (phage clone displaying the anti-PSMA single-domain heavy-chain antibody of SEQ ID NO: 1) (VHH)
VHH: QLQLVESGGGLVQAGGSLRLSCAASGRTFSRYAVGWFRQAPGKEREFVSGLSWTGSSTLYADSVKGRFTFSRDNAKKMVYLQMNTLMPEDTAVYYCAARKTRGKSYEYWGQGTQVTVSS
notes: VHH selected from a naive camelid phage display library; It was tested as a phage particle and detected with anti-M13 antibody, not as a purified protein; also called 针对前列腺特异性膜抗原的单域重链抗体阳性克隆; 展示本发明所述纳米抗体的噬菌体克隆; not shown: the phage coat protein fusion and any linker or tag are not described
As to B1, the binding result in experiment [1] and in experiment [2] was “binds” each time.
